Measured values as given in FireProtDB.
Values joined by “and” are separate entries in the source; they are usually repeats but may differ in a detail not shown here. Equal entries are not always repeated.

B1: Tryptophan synthase alpha chain, P00929 (parent)
chain: MERYENLFAQLNDRREGAFVPFVTLGDPGIEQSLKIIDTLIDAGADALELGVPFSDPLADGPTIQNANLRAFAAGVTPAQCFEMLALIREKHPTIPIGLLMYANLVFNNGIDAFYARCEQVGVDSVLVADVPVEESAPFRQAALRHNIAPIFICPPNADDDLLRQVASYGRGYTYLLSRSGVTGAENRGALPLHHLIEKLKEYHAAPALQGFGISSPEQVSAAVRAGAAGAISGSAIVKIIEKNLASPKQMLAELRSFVSAMKAASRA
B2: Colicin-E1, P02978 (parent)
chain: METAVAYYKDGVPYDDKGQVIITLLNGTPDGSGSGGGGGKGGSKSESSAAIHATAKWSTAQLKKTQAEQAARAKAAAEAQAKAKANRDALTQRLKDIVNEALRHNASRTPSATELAHANNAAMQAEDERLRLAKAEEKARKEAEAAEKAFQEAEQRRKEIEREKAETERQLKLAEAEEKRLAALSEEAKAVEIAQKKLSAAQSEVVKMDGEIKTLNSRLSSSIHARDAEMKTLAGKRNELAQASAKYKELDELVKKLSPRANDPLQNRPFFEATRRRVGAGKIREEKQKQVTASETRINRINADITQIQKAISQVSNNRNAGIARVHEAEENLKKAQNNLLNSQIKDAVDATVSFYQTLTEKYGEKYSKMAQELADKSKGKKIGNVNEALAAFEKYKDVLNKKFSKADRDAIFNALASVKYDDWAKHLDQFAKYLKITGHVSFGYDVVSDILKIKDTGDWKPLFLTLEKKAADAGVSYVVALLFSLLAGTTLGIWGIAIVTGILCSYIDKNKLNTINEVLGI
B3: Inorganic pyrophosphatase, P0A7A9 (parent)
chain: MSLLNVPAGKDLPEDIYVVIEIPANADPIKYEIDKESGALFVDRFMSTAMFYPCNYGYINHTLSLDGDPVDVLVPTPYPLQPGSVIRCRPVGVLKMTDEAGEDAKLVAVPHSKLSKEYDHIKDVNDLPELLKAQIAHFFEHYKDLEKGKWVKVEGWENAEAAKAEIVASFERAKNK
B4: Membrane-associated guanylate kinase, WW and PDZ domain-containing protein 1, Q96QZ7 (parent)
chain: MSKVIQKKNHWTSRVHECTVKRGPQGELGVTVLGGAEHGEFPYVGAVAAVEAAGLPGGGEGPRLGEGELLLEVQGVRVSGLPRYDVLGVIDSCKEAVTFKAVRQGGRLNKDLRHFLNQRFQKGSPDHELQQTIRDNLYRHAVPCTTRSPREGEVPGVDYNFLTVKEFLDLEQSGTLLEVGTYEGNYYGTPKPPSQPVSGKVITTDALHSLQSGSKQSTPKRTKSYNDMQNAGIVHAENEEEDDVPEMNSSFTADSGEQEEHTLQETALPPVNSSIIAAPITDPSQKFPQYLPLSAEDNLGPLPENWEMAYTENGEVYFIDHNTKTTSWLDPRCLNKQQKPLEECEDDEGVHTEELDSELELPAGWEKIEDPVYGIYYVDHINRKTQYENPVLEAKRKKQLEQQQQQQQQQQQQQQQQQQQQTEEWTEDHSALVPPVIPNHPPSNPEPAREVPLQGKPFFTRNPSELKGKFIHTKLRKSSRGFGFTVVGGDEPDEFLQIKSLVLDGPAALDGKMETGDVIVSVNDTCVLGHTHAQVVKIFQSIPIGASVDLELCRGYPLPFDPDDPNTSLVTSVAILDKEPIIVNGQETYDSPASHSSKTGKVNGMKDARPSSPADVASNSSHGYPNDTVSLASSIATQPELITVHIVKGPMGFGFTIADSPGGGGQRVKQIVDSPRCRGLKEGDLIVEVNKKNVQALTHNQVVDMLVECPKGSEVTLLVQRGGLPVPKKSPKSQPLERKDSQNSSQHSVSSHRSLHTASPSHSTQVLPEFPPAEAQAPDQTDSSGQKKPDPFKIWAQSRSMYENRPMSPSPASGLSKGEREREINSTNFGECPIPDYQEQDIFLWRKETGFGFRILGGNEPGEPIYIGHIVPLGAADTDGRLRSGDELICVDGTPVIGKSHQLVVQLMQQAAKQGHVNLTVRRKVVFAVPKTENEVPSPASSHHSSNQPASLTEEKRTPQGSQNSLNTVSSGSGSTSGIGSGGGGGSGVVSTVVQPYDVEIRRGENEGFGFVIVSSVSRPEAGTTFAGNACVAMPHKIGRIIEGSPADRCGKLKVGDRILAVNGCSITNKSHSDIVNLIKEAGNTVTLRIIPGDESSNATLLTNAEKIATITTTHTPSQQGTQETRNTTKPKQESQFEFKAPQATQEQDFYTVELERGAKGFGFSLRGGREYNMDLYVLRLAEDGPAERCGKMRIGDEILEINGETTKNMKHSRAIELIKNGGRRVRLFLKRGDGSVPEYDPSSDRHGPATGPQGVPEVRAGPDRRQHPSLESSYPPDLHKSSPHGEKRAHARDPKGSREYSRQPNEHHTWNGTSRKPDSGACRPKDRAPEGRRDAQAERAAAANGPKRRSPEKRREGTRSADNTLERREKHEKRRDVSPERRRERSPTRRRDGSPSRRRRSLERLLEQRRSPERRRGGSPERRAKSTDRRRARSPERRRERSLDKRNREDRASHREREEANLKQDAGRSSRHPPEQRRRPYKECSTDLSI
B5: Chemotaxis protein CheY, P0AE67 (parent)
chain: MADKELKFLVVDDFSTMRRIVRNLLKELGFNNVEEAEDGVDALNKLQAGGYGFVISDWNMPNMDGLELLKTIRADGAMSALPVLMVTAEAKKENIIAAAQAGASGYVVKPFTAATLEEKLNKIFEKLGM
B6: Alpha-lactalbumin, P00711 (parent)
chain: MMSFVSLLLVGILFHATQAEQLTKCEVFRELKDLKGYGGVSLPEWVCTTFHTSGYDTQAIVQNNDSTEYGLFQINNKIWCKDDQNPHSSNICNISCDKFLDDDLTDDIMCVKKILDKVGINYWLAHKALCSEKLDQWLCEKL
B7: Collagen alpha-1(XVIII) chain, P39060 (parent)
chain: MAPYPCGCHILLLLFCCLAAARANLLNLNWLWFNNEDTSHAATTIPEPQGPLPVQPTADTTTHVTPRNGSTEPATAPGSPEPPSELLEDGQDTPTSAESPDAPEENIAGVGAEILNVAKGIRSFVQLWNDTVPTESLARAETLVLETPVGPLALAGPSSTPQENGTTLWPSRGIPSSPGAHTTEAGTLPAPTPSPPSLGRPWAPLTGPSVPPPSSGRASLSSLLGGAPPWGSLQDPDSQGLSPAAAAPSQQLQRPDVRLRTPLLHPLVMGSLGKHAAPSAFSSGLPGALSQVAVTTLTRDSGAWVSHVANSVGPGLANNSALLGADPEAPAGRCLPLPPSLPVCGHLGISRFWLPNHLHHESGEQVRAGARAWGGLLQTHCHPFLAWFFCLLLVPPCGSVPPPAPPPCCQFCEALQDACWSRLGGGRLPVACASLPTQEDGYCVLIGPAAERISEEVGLLQLLGDPPPQQVTQTDDPDVGLAYVFGPDANSGQVARYHFPSLFFRDFSLLFHIRPATEGPGVLFAITDSAQAMVLLGVKLSGVQDGHQDISLLYTEPGAGQTHTAASFRLPAFVGQWTHLALSVAGGFVALYVDCEEFQRMPLARSSRGLELEPGAGLFVAQAGGADPDKFQGVIAELKVRRDPQVSPMHCLDEEGDDSDGASGDSGSGLGDARELLREETGAALKPRLPAPPPVTTPPLAGGSSTEDSRSEEVEEQTTVASLGAQTLPGSDSVSTWDGSVRTPGGRVKEGGLKGQKGEPGVPGPPGRAGPPGSPCLPGPPGLPCPVSPLGPAGPALQTVPGPQGPPGPPGRDGTPGRDGEPGDPGEDGKPGDTGPQGFPGTPGDVGPKGDKGDPGVGERGPPGPQGPPGPPGPSFRHDKLTFIDMEGSGFGGDLEALRGPRGFPGPPGPPGVPGLPGEPGRFGVNSSDVPGPAGLPGVPGREGPPGFPGLPGPPGPPGREGPPGRTGQKGSLGEAGAPGHKGSKGAPGPAGARGESGLAGAPGPAGPPGPPGPPGPPGPGLPAGFDDMEGSGGPFWSTARSADGPQGPPGLPGLKGDPGVPGLPGAKGEVGADGVPGFPGLPGREGIAGPQGPKGDRGSRGEKGDPGKDGVGQPGLPGPPGPPGPVVYVSEQDGSVLSVPGPEGRPGFAGFPGPAGPKGNLGSKGERGSPGPKGEKGEPGSIFSPDGGALGPAQKGAKGEPGFRGPPGPYGRPGYKGEIGFPGRPGRPGMNGLKGEKGEPGDASLGFGMRGMPGPPGPPGPPGPPGTPVYDSNVFAESSRPGPPGLPGNQGPPGPKGAKGEVGPPGPPGQFPFDFLQLEAEMKGEKGDRGDAGQKGERGEPGGGGFFGSSLPGPPGPPGPPGPRGYPGIPGPKGESIRGQPGPPGPQGPPGIGYEGRQGPPGPPGPPGPPSFPGPHRQTISVPGPPGPPGPPGPPGTMGASSGVRLWATRQAMLGQVHEVPEGWLIFVAEQEELYVRVQNGFRKVQLEARTPLPRGTDNEVAALQPPVVQLHDSNPYPRREHPHPTARPWRADDILASPPRLPEPQPYPGAPHHSSYVHLRPARPTSPPAHSHRDFQPVLHLVALNSPLSGGMRGIRGADFQCFQQARAVGLAGTFRAFLSSRLQDLYSIVRRADRAAVPIVNLKDELLFPSWEALFSGSEGPLKPGARIFSFDGKDVLRHPTWPQKSVWHGSDPNGRRLTESYCETWRTEAPSATGQASSLLGGRLLGQSAASCHHAYIVLCIENSFMTASK
B8: DNA-Binding protein, P69542 (parent)
chain: MIKVEIKPSQAQFTTRSGVSRQGKPYSLNEQLCYVDLGNEYPVLVKITLDEGQPAYAPGLYTVHLSSFKVGQFGSLMIDRLRLVPAK

Variants of: B1
Settings: Salmonella typhimurium (strain LT2 / SGSC1412 / ATCC 700720); pH 7.8; Thermal; Enzyme activity; sodium N/N-bis(2-hydroxyethyl)glycine 0.05 M; structure 2WSY; whole UniProt chain shown

| Variant | Tm [°C] | change of melting temperature, mutant - wild type (higher = more stable) [°C] |
| --- | --- | --- |
| C118S | 41 | -5 |

Variants of: B2
Settings: Escherichia coli; pH 6; 22 °C; Urea; Fluorescence; dimethylglutaric acid 10 mM; NaCl 100 mM; reversible: yes; structure 2I88; whole UniProt chain shown

| Variant | denaturant midpoint (higher = more stable) [M] |
| --- | --- |
| Y507W | 5.7 |
| W424F W495F | 6.1 |
| F431W | 5.8 |
| W460F W495F | 6.1 |
| F484W | 4.6 |
| F404W | 4.8 |
| F355T | 4.9 |
| F443W | 5.5 |
| F413W | 5.7 |
| Y367W | 4.9 |
| W424F W460F | 5.3 |

Variants of: B3
Settings: Escherichia coli (strain K12); pH 7; Thermal; CD; HEPES 20 mM; MgCl2 5 mM; structure 1FAJ; whole UniProt chain shown

| Variant | Tm [°C] |
| --- | --- |
| D27N | 83 |

Same assay, conditions: Escherichia coli (strain K12); pH 7; Thermal; CD; HEPES 20 mM; structure 1FAJ; whole UniProt chain shown

| Variant | Tm [°C] |
| --- | --- |
| D27N | 58 |

Variants of: B4
Settings: Homo sapiens; pH 7; Thermal; CD; Tris-HCl 20 mM; NaCl 100 mM; structure 2ZAJ; whole UniProt chain shown

| Variant | unfolding enthalpy (calorimetric) | unfolding enthalpy (van 't Hoff) |
| --- | --- | --- |
| D370S | 14.4 kcal/mol and 9.15 kcal/mol | 9.37 kcal/mol and 9.15 kcal/mol |

Variants of: B5
Settings: Escherichia coli (strain K12); pH 7; 25 °C; Urea; Fluorescence; Cacodylate 100 mM; structure 1CEY; whole UniProt chain shown

| Variant | ddG of mutation (higher = less stable) [kcal/mol] | unfolding free energy [kcal/mol] |
| --- | --- | --- |
| D12A | -2.5 | 8.1 |
| D13A | -2.7 | 8.3 |
| D57A | -3.3 | 8.9 |

Variants of: B6
Settings: Bos taurus; pH 8; Thermal; Fluorescence; HEPES 10 mM; CaCl2 1 mM; structure 1HFZ; whole UniProt chain shown

| Variant | Tm [°C] | change of melting temperature, mutant - wild type (higher = more stable) [°C] |
| --- | --- | --- |
| D106N | 31.4 | 6.8 |

Variants of: B7
Settings: Homo sapiens; pH 7.4; 20 °C; GdnHCl; Fluorescence; Tris-HCl 5 mM; structure 1BNL; whole UniProt chain shown

| Variant | denaturant m value | denaturant midpoint (higher = more stable) [M] | unfolding free energy |
| --- | --- | --- | --- |
| D1647A | 2.86 kcal/mol/M and 1.57 kcal/mol/M | 1.79 | 5.12 kcal/mol and 2.82 kcal/mol |

Variants of: B8
Settings: Enterobacteria phage fd; pH 7; 25 °C; GdnHCl; CD; MOPS 50 mM; NaCl 100 mM; reversible: yes; structure 1VQB; whole UniProt chain shown

| Variant | unfolding free energy [kcal/mol] |
| --- | --- |
| L32W | 2.8 |
| T48V | 0 |
| K69M | 0.1 |
| E30M | 0.6 |
| T62V | 1.3 |
| K24V | 0.8 |
